Results reported in patent US20220339270A1.

Assays:
[1] = target: Phospho_Tau441 (Tau441 phosphorylated in vitro by DYRK1A) (human), P10636; assay: ELISA, PT3 immobilized, tau protein applied at 333 ng/mL; settings: remark: other sources report otherwise
[2] = target: Tau441 (recombinant, not phosphorylated) (human), P10636; assay: as above; settings: remark: other sources report otherwise
Tau441 (recombinant, not phosphorylated) (human), P10636, sequence (P10636 other isoform, or with tags, fused parts or gaps limits assumed): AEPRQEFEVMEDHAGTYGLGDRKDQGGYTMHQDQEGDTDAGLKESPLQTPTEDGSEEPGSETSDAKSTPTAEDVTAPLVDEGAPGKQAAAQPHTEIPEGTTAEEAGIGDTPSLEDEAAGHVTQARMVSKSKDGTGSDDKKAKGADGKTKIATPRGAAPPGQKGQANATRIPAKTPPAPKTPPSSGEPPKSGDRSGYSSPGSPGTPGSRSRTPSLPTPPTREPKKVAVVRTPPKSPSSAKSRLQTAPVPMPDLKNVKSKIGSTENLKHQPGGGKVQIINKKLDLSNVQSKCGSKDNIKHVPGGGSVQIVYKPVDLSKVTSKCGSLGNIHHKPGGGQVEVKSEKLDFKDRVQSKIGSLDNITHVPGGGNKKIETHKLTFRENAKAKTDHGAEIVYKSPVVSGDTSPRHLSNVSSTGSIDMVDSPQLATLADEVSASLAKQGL

Phospho_Tau441 (Tau441 phosphorylated in vitro by DYRK1A) (human), P10636, sequence (P10636 other isoform, or with tags, fused parts or gaps limits assumed): as above

B1: anti-tau antibody PT3 (antibody, V domains shown)
VH: EVKLVESGGDLVKPGGSLKLSCAASGFTFSSYAMSWVRQNPEKRLEWVASISKGGNTYYPNSVKGRFTISRDNARNILYLQMSSLRSEDTALYYCARGWGDYGWFAYWGQVTLVTVSA
VL: DIKMTQSPSSMYASLGERVTITCKASQDINRYLNWFQQKPGKSPKTLIYRANRLLDGVPSRFSGSGSGQDYSLTISSLDYEDMGIYYCLQYDEFPLTFGDGTKLELK
B1 was tested, and the OD450-570 [1] was 0.5 and the OD450-570 [2] was 0.
